This note sets out measurements from patent US20080207488A1, “Method for Detecting Peptides Comprising a Cross-B Structure” (priority 2005, published 2008).

The subject of data set [1] is U937 monocytes. Nature of the data set: TNFα RNA upregulation in U937 monocytes (RT-PCR). The class given is cell-based, human. The note with it: 1 h stimulation; 100 μg ml^−1 amyloid endostatin, 260 μg ml^−1 Hb-AGE; LPS 1 μg ml^−1; normalized to 18S. The procedure: U937 monocytes were cultured in six-wells plates. Cells were stimulated with buffer (negative control), 1 μg ml^−1 LPS (positive control), 100 μg ml^−1 amyloid endostatin^1,7, 260 μg ml^−1 Hb-AGE and 260 μg ml^−1 control Hb. After 1 h of stimulation, cells were put on ice. After washing RNA was isolated and quantified spectrophotometrically. Normalized amounts of RNA were used for 26 cycli of RT-PCR with human TNFα primer and 18 cycli of RT-PCR with ribosomal 18S primer for normalization purposes. DNA was analyzed on a 2% agarose gel.

Data set [2] concerns the target T1, tPA (Homo sapiens, UniProt P00750).
T1 construct: purchased Boehringer-Ingelheim (Actilyse, Alteplase)
Nature of the data set: tPA binding assay with immobilized biopharmaceuticals in an ELISA. Particulars: therapeutic coated 1:10; one-site binding fit. As to the method:
Nunc Immobilizer plates (Nalge Nunc, #436013, Rochester, N.Y., USA) were coated with 50 μL containing 5 μg/mL of sample protein (unless indicated otherwise) in 100 mM NaHCO3, pH 9.6, 0.05% m/v NaN3 for 1 hour at room temperature. Plates were washed twice with Tris buffered saline pH 7.2 containing 0.1% Tween20 (TBST) and blocked with PBS containing 1% Tween20 for 1 hour at room temperature. […] Plates were washed five times with TBST and incubated with peroxidase labeled anti-mouse immunoglobulins (RAMPO; DAKOCytomation, Glostrup, Denmark) diluted 1:3000 in PBST for 30 minutes at room temperature. Plates were washed five times with PBS 0.1% Tween20, and stained with 100 μL/well of tetramethyl-benzidine (TMB) substrate (Biosource Europe, Nivelles, Belgium). The reaction was terminated with 50 μL/well of 2 M H2SO4 and substrate conversion was read at 450 nm on a Spectramax340 microplate reader. Curves were fitted with a one-site binding model (GraphPad Prism version 4.02 for Windows, Graphpad Software, CA, USA) from which Kd and Bmax were determined.
(§1) Protein therapeutics were obtained from the local hospital pharmacy and analyzed within the expiry limits as stated by the manufacturers.
Background: An ELISA detects its analyte on a solid surface through an enzyme-linked reagent.

Data set [3] in a line: Congo red fluorescence. The class given is physicochemical. As to the method: Background signals from buffer, buffer with Congo red and protein/peptide solution without Congo red were subtracted from corresponding measurements with protein solution incubated with Congo red. Fluorescence was measured in triplicate on a Hitachi F-4500 fluorescence spectrophotometer (Ltd., Tokyo, Japan).
(§2) Formulated protein therapeutics were obtained from the local hospital pharmacy and were used as supplied by the manufacturers. […] Lyophilized therapeutics were dissolved according to the manufacturers recommendations. […] Other protein therapeutics were only kept at 4° C., and assayed for the presence of cross-β structure conformation at shown time points. Enhancement in fluorescence of ThT and Congo red was measured with all formulated protein therapeutics. For this purpose, proteins were diluted to the indicated concentrations. […] Zinc-insulin was diluted tenfold in the activation assay, GH was diluted to a final concentration of 500 μg ml^−1. Activation of factor XII and prekallikrein by the therapeutics was tested in the chromogenic factor XII assay (see above). […] After coating, plates were blocked with Blocking Reagent (Roche Diagnostics, Almere, The Netherlands).
as §1

Data set [4] has as its target T1, tPA. Nature of the data set: Plasminogen-activation assay (tPA-mediated Plg to Pls, S-2251). In kind it is biochemical. The note with it: stored at 4° C.; GH 500 μg ml^−1, zinc-insulin diluted tenfold. As to the method:
Plasmin (Pls) activity was assayed as described^7. Peptides and proteins that were tested for their stimulatory ability were regularly used at 100 μg ml^−1. […] Chromogenic substrate S-2251 (Chromogenix, Instrumentation Laboratory SpA, Milano, Italy) was used to measure Pls activity. Conversion of zymogen factor XII (#233490, Calbiochem, EMD Biosciences, Inc., San Diego, Calif.) to proteolytically active factor XII (factor XIIa) was assayed by measurement of the conversion of chromogenic substrate Chromozym-PK (Roche Diagnostics, Almere, The Netherlands) by kallikrein. Chromozym-PK was used at a concentration of 0.3 mM. Factor XII, human plasma prekallikrein (#529583, Calbiochem) and human plasma cofactor high-molecular weight kininogen (#422686, Calbiochem) were used at concentrations of 1 μg ml^−1. […] Assays were performed using microtiter plates (Costar, Cambridge, Mass., USA). Peptides and proteins were tested for their ability to activate factor XII. 150 μg ml^−1 kaolin, an established activator of factor XII was used as positive control and solvent (H2O) as negative control. The conversion of Chromozym-PK was recorded kinetically at 37° C. for at least 60 minutes. Assays were done in duplicate. […] Alternatively, chromogenic substrate S-2222 (Chromogenix) was used to follow the activity of factor XII itself. With S-2222, activation of factor XII in plasma was measured, using 60% v/v plasma, diluted with substrate and H2O with or without potential cofactor. Furthermore, auto-activation of factor XII was measured by incubating 53 μg ml^−1 purified factor XII in 50 mM Tris-HCl buffer pH 7.5 with 1 mM EDTA and 0.001% v/v Triton-X100, with S-2222 and H2O with or without potential cofactor.
as §2
Purification of β2-glycoprotein I (β2GPI) was performed according to established methods^11,12. Recombinant human β2GPI was made using insect cells and purified as described^11. Plasma derived β2GPI as used in a factor XII ELISA, the chromogenic Plg-activation assay and in the anti-phospholipid syndrome antibody ELISA (see below), was purified from fresh human plasma as described^12.
(§3) To prepare structurally altered ovalbumin (OVA) with amyloid cross-β structure conformation, purified OVA (Sigma, A-7641, lot 071k7094) was heated to 85° C. One mg ml^−1 OVA in 67 mM NaPi buffer pH 7.0, 100 mM NaCl, was heated for two cycles in PCR cups in a PTC-200 thermal cycler (MJ Research, Inc., Waltham, Mass., USA). In each cycle, OVA was heated from 30 to 85° C. at a rate of 5° C./min. Native OVA (nOVA) and heat-denatured OVA (dOVA) were tested in the ThT fluorescence assay and in the Plg-activation assay. In the fluorescence assay and in the Plg-activation assay, 25 and 100 μg ml^−1 nOVA and dOVA were tested, respectively. TEM images of nOVA and dOVA were taken to check for the presence of large aggregates. […] MSA (#126674, Calbiochem) was dissolved in 8 M urea, 100 mM Tris-HCl pH 8.2, at 10 mg ml^−1 final concentration.

The target in data set [5] is T1, tPA. Nature of the data set: tPA ELISA with coated protein therapeutics. The note with it: 5 μg ml^−1 coated, stored at 4° C. The class given is binding. As to the method:
as §2

Data set [6] in a line: Thioflavin T fluorescence. In kind it is physicochemical. As to the method:
Fluorescence of ThT-protein/peptide adducts was measured as follows. […] Fluorescence was measured at 485 nm upon excitation at 435 nm. Background signals from buffer, buffer with ThT and protein/peptide solution without ThT were subtracted from corresponding measurements with protein solution incubated with ThT. […] Fluorescence was measured in triplicate on a Hitachi F-4500 fluorescence spectrophotometer (Ltd., Tokyo, Japan).
as §2
as §3, with “concentration. Dithiothreitol (DTT) was added to a final concentration of 10 mM. Air was replaced by N2 and the solution was incubated for 2 h at room temperature. Then, the solution was transferred to ice and iodoacetamide was added from a 1 M stock to a final concentration of 20 mM. […] Alkyl-MSA was dialyzed against H2O before use. […] In the ThT-fluorescence assay 25 μg ml^−1 nMSA and alkyl-MSA were tested, and in the Plg-activation assay 100 μg ml^−1 was tested. The presence of aggregates or fibrils was analyzed using TEM. […]” for “concentration.”
as §1

The target in data set [7] is T1, tPA. Nature of the data set: tPA ELISA with proteins pre-incubated with DXS500k. In kind it is binding.
For data set [8], the target named is T2, factor XII (Homo sapiens, UniProt P00748).
T2 construct: purchased Calbiochem, EMD Biosciences #233490
T2 sequence (P00748 20-615): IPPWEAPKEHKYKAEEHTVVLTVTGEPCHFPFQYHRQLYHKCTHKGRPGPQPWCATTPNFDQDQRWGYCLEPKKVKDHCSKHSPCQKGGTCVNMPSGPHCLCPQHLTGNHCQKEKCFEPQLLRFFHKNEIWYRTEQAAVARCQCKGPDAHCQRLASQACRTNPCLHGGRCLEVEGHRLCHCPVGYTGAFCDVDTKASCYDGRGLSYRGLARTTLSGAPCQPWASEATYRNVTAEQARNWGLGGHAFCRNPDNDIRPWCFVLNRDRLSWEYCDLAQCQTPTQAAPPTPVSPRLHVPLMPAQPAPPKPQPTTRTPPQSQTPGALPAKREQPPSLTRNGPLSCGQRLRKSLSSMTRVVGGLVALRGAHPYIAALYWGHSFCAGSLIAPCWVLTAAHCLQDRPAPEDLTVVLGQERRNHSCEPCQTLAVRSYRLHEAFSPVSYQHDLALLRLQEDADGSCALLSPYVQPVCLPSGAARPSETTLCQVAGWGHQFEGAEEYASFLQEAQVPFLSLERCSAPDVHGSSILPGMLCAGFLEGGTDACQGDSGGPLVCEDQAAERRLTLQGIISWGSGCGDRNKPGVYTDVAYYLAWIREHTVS
Nature of the data set: Factor XII auto-activation assay with substrate S-2222. In kind it is biochemical. The note with it: purified factor XII, 100 μg ml^−1 FP13 K157G, 10 μg ml^−1 Aβ(1-40) E22Q, 10 μg ml^−1 Hb-AGE, DXS500k 1 μg ml^−1 as comparator. As to the method:
Plasmin (Pls) activity was assayed as described^7. Peptides and proteins that were tested for their stimulatory ability were regularly used at 100 μg ml^−1. […] Chromogenic substrate S-2251 (Chromogenix, Instrumentation Laboratory SpA, Milano, Italy) was used to measure Pls activity. Conversion of zymogen factor XII (#233490, Calbiochem, EMD Biosciences, Inc., San Diego, Calif.) to proteolytically active factor XII (factor XIIa) was assayed by measurement of the conversion of chromogenic substrate Chromozym-PK (Roche Diagnostics, Almere, The Netherlands) by kallikrein. Chromozym-PK was used at a concentration of 0.3 mM. Factor XII, human plasma prekallikrein (#529583, Calbiochem) and human plasma cofactor high-molecular weight kininogen (#422686, Calbiochem) were used at concentrations of 1 μg ml^−1. […] Assays were performed using microtiter plates (Costar, Cambridge, Mass., USA). […] The conversion of Chromozym-PK was recorded kinetically at 37° C. for at least 60 minutes. […] With S-2222, activation of factor XII in plasma was measured, using 60% v/v plasma, diluted with substrate and H2O with or without potential cofactor. Furthermore, auto-activation of factor XII was measured by incubating 53 μg ml^−1 purified factor XII in 50 mM Tris-HCl buffer pH 7.5 with 1 mM EDTA and 0.001% v/v Triton-X100, with S-2222 and H2O with or without potential cofactor.

[9] abbreviates: marketed biopharmaceutical within expiry limits, five μL tested.

T1 sequence (P00750 36-562): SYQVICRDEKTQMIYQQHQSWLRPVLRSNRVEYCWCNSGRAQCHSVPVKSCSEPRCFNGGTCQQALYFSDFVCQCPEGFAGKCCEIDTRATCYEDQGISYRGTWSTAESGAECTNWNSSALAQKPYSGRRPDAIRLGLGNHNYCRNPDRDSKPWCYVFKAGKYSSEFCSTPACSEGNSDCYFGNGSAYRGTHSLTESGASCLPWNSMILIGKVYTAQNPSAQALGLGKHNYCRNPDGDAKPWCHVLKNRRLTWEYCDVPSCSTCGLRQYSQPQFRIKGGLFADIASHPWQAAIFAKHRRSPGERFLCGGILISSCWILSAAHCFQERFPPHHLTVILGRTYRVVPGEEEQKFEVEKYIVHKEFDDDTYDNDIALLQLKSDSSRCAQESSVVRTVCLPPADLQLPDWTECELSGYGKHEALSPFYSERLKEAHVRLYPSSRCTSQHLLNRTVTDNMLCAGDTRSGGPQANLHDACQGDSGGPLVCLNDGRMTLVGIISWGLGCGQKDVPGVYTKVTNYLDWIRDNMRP

Consider “Hb-AGE: human haemoglobin incubated 32 weeks at 37° C. with glucose-6-phosphate”, for which, in data set [1], the “TNFα RNA expression when compared to LPS” value was “approximately 30%”.
Take “Somatropin: human growth hormone (GH) (Genotropin, Pharmacia)”: the “tPA Binding Bmax (OD450 nm)” value in data set [2] is recorded as 0.9369 OD450 nm. Moreover, in data set [3] (setting [9]), the “Fluorescence (a.u. +/− SD) CR” value is listed as 429 +/− 2 a.u. Further, the “enhancement of Congo red fluorescence” value in data set [3] (therapeutics stored at 4° C.) is “to some extent”. Also, the “tPA activation by protein therapeutics” value in data set [4] was “induced tPA activation”. Moreover, the “binding of tPA to immobilized therapeutic” value in data set [5] is on record as “binding of tPA was established”. For the same substance, the “Fluorescence (a.u. +/− SD) ThT” value in data set [6] (setting [9]) was 1317 +/− 10 a.u. Moreover, in data set [6] (therapeutics stored at 4° C.), the “enhancement of ThT fluorescence” value was “enhance fluorescence of ThT”.
Take “factor XII: zymogen factor XII (Calbiochem), here pre-incubated with DXS500k”: the “tPA binding to protein pre-incubated overnight with DXS500k” value in data set [7] is “binds specifically”.
On to “freshly dissolved FP13 K157G: FP13 K157G peptide freshly dissolved, not aggregated (KRLEVDIDIGIRS)”, for which, in data set [8], the “potency to induce factor XII auto-activation” value is recorded as “did not or hardly auto-activate factor XII”.
